The assay deals with PbrSYP71ΔTM-His (lacking TM domain of PbrSYP71) (Pyrus bretschneideri). As to the kind of experiment: MST.

One substance from article doi:10.1101/2024.01.17.576111 can be followed below.

The substance “F-actin (Pre-formed Actin Filaments, rabbit skeletal muscle actin) (from UniProt P68135 1-377) (natural protein)” had a Kd of 185 nM.

What is called Kd is the equilibrium constant for the complex coming apart. Low readings indicate higher affinity, high ones lower affinity.
